Key:
[KGKGG]5 peptide = EMSA; conditions: poly(ADP-ribose), 16 ADP-ribose units; no base sequence; EMSA and anisotropy: 50 mM Tris-HCl pH 7.5, 100 mM KCl, 10 mM beta-mercaptoethanol, 0.1 mg/mL BSA, 2 mM MgCl2, 23 C, 30 min; single-molecule: 20 mM Tris-HCl pH …
[KGYGG]5 peptide = EMSA; conditions: poly(ADP-ribose), 16 ADP-ribose units; no base sequence; EMSA and anisotropy: 50 mM Tris-HCl pH 7.5, 100 mM KCl, 10 mM beta-mercaptoethanol, 0.1 mg/mL BSA, 2 mM MgCl2, 23 C, 30 min; single-molecule: 20 mM Tris-HCl pH …
[RGRGG]5 peptide = EMSA; conditions: poly(ADP-ribose), 16 ADP-ribose units; no base sequence; EMSA and anisotropy: 50 mM Tris-HCl pH 7.5, 100 mM KCl, 10 mM beta-mercaptoethanol, 0.1 mg/mL BSA, 2 mM MgCl2, 23 C, 30 min; single-molecule: 20 mM Tris-HCl pH …
[RGYGG]5 peptide = EMSA; conditions: poly(ADP-ribose), 16 ADP-ribose units; no base sequence; EMSA and anisotropy: 50 mM Tris-HCl pH 7.5, 100 mM KCl, 10 mM beta-mercaptoethanol, 0.1 mg/mL BSA, 2 mM MgCl2, 23 C, 30 min; single-molecule: 20 mM Tris-HCl pH …
FUS RGG3-PY fragment = assay: fluorescence anisotropy; conditions: poly(ADP-ribose); length not given in material; EMSA and anisotropy: 50 mM Tris-HCl pH 7.5, 100 mM KCl, 10 mM beta-mercaptoethanol, 0.1 mg/mL BSA, 2 mM MgCl2, 23 C, 30 min; single-molecule: 20 mM Tris-HCl pH …
[1] = test system: FUS with all 15 RGG3-PY arginines to alanine; assay: fluorescence anisotropy or EMSA (method not given); conditions: poly(ADP-ribose); length not given in material; EMSA and anisotropy: 50 mM Tris-HCl pH 7.5, 100 mM KCl, 10 mM beta-mercaptoethanol, 0.1 mg/mL BSA, 2 mM MgCl2, 23 C, 30 min; single-molecule: 20 mM Tris-HCl pH …
[2] = biological target: T1, His-MBP-tagged PrLD (prion-like domain) of FUS (Fused in Sarcoma); assay: BLI
T1 chain: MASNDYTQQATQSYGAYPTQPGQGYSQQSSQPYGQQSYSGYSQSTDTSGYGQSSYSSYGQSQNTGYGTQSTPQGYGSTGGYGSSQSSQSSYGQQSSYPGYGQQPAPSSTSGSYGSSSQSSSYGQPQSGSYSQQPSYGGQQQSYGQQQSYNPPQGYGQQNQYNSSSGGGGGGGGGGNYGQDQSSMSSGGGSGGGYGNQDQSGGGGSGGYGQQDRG

[3] = biological target: T2, His-MBP-tagged PrLD (prion-like domain) of FUS (Fused in Sarcoma); assay: BLI; His-MBP-tagged PrLD (400 nM) immobilised on HIS1K (anti-His) biosensors; analyte in PBSA (PBS + 0.1% BSA), MBP-tagged CTRR at 0.4, 1, 2, 5 and 12 uM; association 600 s, dissociation 600 s; Octet RED96; association phase fitted to an exponential kinetic binding model; conditions: both partners purified
T2 chain: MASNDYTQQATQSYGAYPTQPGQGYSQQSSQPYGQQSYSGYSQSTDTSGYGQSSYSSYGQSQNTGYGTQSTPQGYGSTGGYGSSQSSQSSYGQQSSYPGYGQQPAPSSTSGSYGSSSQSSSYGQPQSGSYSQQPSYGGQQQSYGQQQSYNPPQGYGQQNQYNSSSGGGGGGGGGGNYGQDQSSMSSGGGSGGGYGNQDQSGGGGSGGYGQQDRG

In the case of Cy3-PAR 16-mer, the Kd ([KGKGG]5 peptide) is reported as 24 µM, the Kd ([KGYGG]5 peptide) is reported as 29 µM and the Kd ([RGRGG]5 peptide) is reported as 0.8 µM. It also gave a Kd ([RGYGG]5 peptide) of 10 µM.

Molecule AF488-PAR (anisotropy) has a binding signal (fold weaker than full-length FUS) (FUS RGG3-PY fragment) of 3 and a binding signal (fold weaker than wild-type FUS) [1] of 2.7.

B1: MBP-tagged CTRR (C-terminal RGG-rich region, RGG2-ZnF-RGG3-PY) of FUS (domain or fragment)
chain: RADFNRGGGNGRGGRGRGGPMGRGGYGGGGSGGGGRGGFPSGGGGGGGQQRAGDWKCPNPTCENMNFSWRNECNQCKAPKPDGPGGGPGGSHMGGNYGDDRRGGRGGYDRGGYRGRGGDRGGFRGGRGGGDRGGFGPGKMDSRGEHRQDRRERPY
modifications: MBP tag omitted. Limits are not printed: start taken just after the RRM (285-371), running to the C-terminus (RGG2-ZnF-RGG3-PY). Zn2+ in the RanBP2-type zinc finger. His-MBP tag omitted. Limits are not printed: 1-214 is the conventional FUS PrLD/low-complexity domain, and it includes Y177, which the paper places in the PrLD.
In the case of B1, the koff [2] is reported as 0.00052 s⁻¹.

B2: MBP-tagged CTRR (C-terminal RGG-rich region, RGG2-ZnF-RGG3-PY) of FUS (domain or fragment)
chain: RADFNRGGGNGRGGRGRGGPMGRGGYGGGGSGGGGRGGFPSGGGGGGGQQRAGDWKCPNPTCENMNFSWRNECNQCKAPKPDGPGGGPGGSHMGGNYGDDRRGGRGGYDRGGYRGRGGDRGGFRGGRGGGDRGGFGPGKMDSRGEHRQDRRERPY
modifications: MBP tag omitted. Limits are not printed: start taken just after the RRM (285-371), running to the C-terminus (RGG2-ZnF-RGG3-PY). Zn2+ in the RanBP2-type zinc finger. / His-MBP tag omitted. Limits are
Work on B2 yielded a Kd [3] of 1.37 µM.
